Data on 2 substances can be found in patent US20030223964A1.

In this assay the target is FITC-labeled CD4 (UniProt P01730). The experiment in a line: size exclusion HPLC (Biosil 250) after incubation with FITC-labeled CD4; free CD4-FITC elutes at 2.67 minutes. For orientation: In gel filtration, larger molecules generally elute earlier.

“oligomeric gp140 US4 (o-gp140 US4), purified from CHO cell supernatant” gave a retention time of the complex on size exclusion HPLC of 1.9 min.

In turn, “US4 gp120, purified from CHO cell supernatant” registered a retention time of the complex on size exclusion HPLC of 2.17 min.
